Results as given in patent US20090285813A1.

Target: human CD3 (human) (UniProt P07766)
Test: cell-based or functional assay

human CD3 (human), sequence (P07766 23-207): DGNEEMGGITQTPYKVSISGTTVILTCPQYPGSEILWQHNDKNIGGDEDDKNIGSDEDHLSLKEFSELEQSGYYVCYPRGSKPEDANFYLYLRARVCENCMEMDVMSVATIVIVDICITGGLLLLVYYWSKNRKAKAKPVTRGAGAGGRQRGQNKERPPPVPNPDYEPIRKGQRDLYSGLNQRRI

Substance: Irrelevant human IgG1 (EMD Biosciences Cat. 400120) (antibody)
- Apo-One Apoptosis Assay, 12.5 ng/ml: 250
- Apo-One Apoptosis Assay, 25 ng/ml: 259
- Apo-One Apoptosis Assay, 50 ng/ml: 234
